The text below walks through data of patent US20180360949A1.

Assay [1] deals with CD4 (UniProt P01730). The assay is described as follows: Biacore CD4 binding, lot comparison (clinical trial material).
The target of assay [2] is CD4 (UniProt P01730). The assay is described as follows: Biacore CD4 binding, lot comparison (reference material).

With TV1.C gp120, the CD4 binding (Biacore) % in assay [1] amounted to 98%; in assay [2], 91%.
Take 1086.C gp120: the CD4 binding (Biacore) % in assay [1] was 87%; in assay [2], 100%.
